Laboratory results: US20230203146A1
Changes are numbered by the printed parent chain.

B1: VHH 3A07 (VHH, not shown: small tags and cut ends)
VHH: EVQLVESGGGLVQPGGSLRLSCAASGFTLDYDAIGWFRQAPGKEREGVSCITSSDGITYYADSVKGRFTISRDNAKNTVYLQMNSLKPEDTAVYYCATGNRRIYYSDYALACFPYEYDYWGQGTQVTVSS
B2: VHH 15A06 (VHH, not shown: small tags and cut ends)
VHH: EVQLVESGGGLVQAGGSLRLSCAASGRTFSSYAMGWFRQAPGKEREFVARISWNGGSTYHADSVKGRFTISRDNPKNTVYLQMDSLKPEDAAIYYCAASIALVGGVTPHSYDYWGQGTQVTVSS
B3: VHH 22G11 (VHH, not shown: small tags and cut ends)
VHH: EVQLVESGGGLVQAGGSLRLSCAVSGFTFDDYAIGWFRQAPGKEREGVSCISRSDGSPYYADSVKGRFTISSDNAKGTVYLQMSSLKPEDTAVYYCAASWSGAYYSGTYYCDRLYEYDAWGQGTQVTVSS
B4: VHH 14H02 (VHH, not shown: small tags and cut ends)
VHH: EVQLVESGGGLVQAGGSLRLSCAASGFTFDEYAIGWFRQAPGKEREGVSYISSSDGSTYYADSVKGRVTSSSDNAKNTVYLQMNSLKPEDTAVYYCAARPTLRVRLDNDRHHLLYEYEYDYWGQGTQVTVSS
B5: VHH 25B01 (VHH, not shown: small tags and cut ends)
VHH: EVQLVESGGGLVQAGGSLRLSCAASGFTFDDYAIGWFRQAPGKEREGVSCISSSDGSTYYADSVKGRFTISSDNAKNTVYLQMNSLKPEDTAVYYCAAAWGASRLPIGTMPPYEYDYWGQGTQVTVSS
B6: VHH 2G01 (VHH, not shown: small tags and cut ends)
VHH: EVQLVESGGGLVQAGGSLRLSCAASGRTISSYAMAWFRQAPGKEREFVAAISLSGDSTYYADSVKGRFTISRDNAKNTVYLQMNSLKPEDTAEYYCAATDWDFEDIPEYYCSGYGCDESLFDSWGQGTQVTVSS
B7: VHH 10A03 (VHH, not shown: small tags and cut ends)
VHH: EVQLVESGGGSVQAGGSLRLSCAASERTFSPYAMGWFRQAPGKEREFVAHITWSAGSTYYADSVKGRFTISRDNAKNTVYLQMNSLKPEDTAVYYCAAKRRYGIVDRDYNDWGQGTQVTVSS
B8: VHH 15H04 (VHH, not shown: small tags and cut ends)
VHH: EVQLVESGGGLVQAGGSLGLSCAASERTLPSYVMGWFRQAPGKELEFVAGISWSSGRTYYTDSVKGRFTISRDAAENTWYLQMNSLKPEDTAVYYCASNSVSEPTLHTWQYEASYDYWGQGTQVTVSS
B9: VHH 00908 (VHH, not shown: small tags and cut ends)
VHH: EVQLVESGGGLVQPGGSLRLSCAASGITLDDYAIGWFRQAPGKEREGVSSIRDNGGSTYYADSVKGRFTISSDNSKNTVYLQMNSLRPEDTAVYYCAAVPAGRLRYGEQWYPIYEYDAWGQGTLVTVSS
B10: VHH 00932 (VHH, not shown: small tags and cut ends)
VHH: B9 VHH with A24V
B11: VHH 00899 (VHH, not shown: small tags and cut ends)
VHH: B9 VHH with P14A, I27F, N54I, G55D, S75D, R87K, Y106F, I113L
B12: VHH 00902 (VHH, not shown: small tags and cut ends)
VHH: B9 VHH with P14A, I27F, S50A, N54S, S75D, R87K, Y106F, I113L
B13: VHH 00919 (VHH, not shown: small tags and cut ends)
VHH: B9 VHH with I27F, S50A, Y106F, I113L
B14: VHH 00937 (VHH, not shown: small tags and cut ends)
VHH: B9 VHH with A24V, S50A, D53E, N54S
B15: VHH 00900 (VHH, not shown: small tags and cut ends)
VHH: B9 VHH with P14A, A24V, I27F, G55D, S75D, R87K, Y106F, I113L
B16: VHH 00898 (VHH, not shown: small tags and cut ends)
VHH: B9 VHH with P14A, I27F, S50A, G55D, S75D, R87K, Y106F, I113L
B17: VHH 00935 (VHH, not shown: small tags and cut ends)
VHH: B9 VHH with S50A, D53S, N54S
B18: VHH 00923 (VHH, not shown: small tags and cut ends)
VHH: B9 VHH with E1D, I27F, S50A, Y106F, I113L
B19: VHH 00934 (VHH, not shown: small tags and cut ends)
VHH: B9 VHH with S50A, D53E, N54S
B20: VHH 00936 (VHH, not shown: small tags and cut ends)
VHH: B9 VHH with A24V, S50A
B21: VHH 00933 (VHH, not shown: small tags and cut ends)
VHH: B9 VHH with S50A
B22: VHH 23C10 (VHH, not shown: small tags and cut ends)
VHH: EVQLVESGGGLVQPGGSLRLSCAASGFALDYYAIGWFRQAPGKEREGVSCISSSDGSTYYADSVKGRFTISRDNAKNTVYLQMNSLKPEDTAVYYCATDSLGYGSSCRMAPYEYDYWGQGTQVTVSS
B23: VHH 22C07 (VHH, not shown: small tags and cut ends)
VHH: EVQLVESGGGLVQAGGSLRLSCAASGFTFDDYAIGWFRQAPGKEREGVSCISSSDGSTYYADSVKGRFTISSDNAKNTVYLQMNSLKPEDTAVYYCAADFIISSKRLCLDLFGSRGQGTQVTVSS
B24: VHH 10C06 (VHH, not shown: small tags and cut ends)
VHH: EVQLVESGGGLVQAGGSLRLSCVASGFTFDDYAIGWFRQAPGKEREGVSCISSSDGSTYYADSVKGRFTISGDNAKNTVYLQMNSLKPEDTAVYYCAAGITPCSDYTQTYEYDVWGQGTQVTVSS
B25: VHH 2F04 (VHH, not shown: small tags and cut ends)
VHH: EVQLVESGGGLVQAGGSLRLSCAASGFAFDDHLIGWFRQAPGKEREAVSCISRSAGSTYYADSVKGRFTISSDNAKNTVYLQMNSLKADDTAVYYCAAGPAWGRPASPLPYEYDYWGQGTQVTVSS
B26: VHH 19A03 (VHH, not shown: small tags and cut ends)
VHH: EVQLVESGGGLVQAGGSLRLSCAASGFTFDDYAIAWFRQAPGKEREGISCITPSDDRTYYADSVKGRFIISSDNAKNTVYLQMNSLKPEDTADYYCAAVPRLRGLGYWPYPEYEYDYWGQGTQVTVSS
B27: VHH 16G09 (VHH, not shown: small tags and cut ends)
VHH: EVQLVESGGGLVQAGGSLRLVCSASGIDFSINAMAWYRQAPGKQREWVAFMINDSSTDYTDSVKGRFTISRDSTKNILYLQMNNLNVEDTAVYYCNTAYEQHTYWGQGTQVTVSS
B28: VHH 12B03 (VHH, not shown: small tags and cut ends)
VHH: EVQLVESGGGLVQSGGSLRLSCAASGFALDYYTIGWFRQAPGKEREGVSCISGGDTSTYYADSVKGRFTISRDNAKNTVYLQMNSLKPEDTAVYYCATDSAGVPAGPAAVYGSTCSRLEYDYWGQGAQVTVSS
B29: VHH 6H05 (VHH, not shown: small tags and cut ends)
VHH: EVQLVESGGGLVQAGGSLRLSCAASGFTFDDYAIGWFRQAPGKEREGVSCISSSDGSTAYADSVKGRFTISSDNAKNTVYLQMNSLKPEDTAVYYCTAVPATRRTPQMVAANVCWLAEYEYDYWGQGTQVTVSS
B30: VHH 21G10 (VHH, not shown: small tags and cut ends)
VHH: EVQLVESGGGLVQAGGSLRLSCAASGFTLDDYAIGWFRQAPGKEREGVSCISSSDGSTTYADSVKGRFTVSSDNAKNTVYLQMNSLKPEDTAVYYCAAGLRGRYYRGTYSLVCAPYEYDFWGQGTQVTVSS
B31: VHH 00927 (VHH, not shown: small tags and cut ends)
VHH: EVQLVESGGGLVQPGGSLRLSCAASGFALDYYAIGWFRQAPGKEREGVSCISSSGGITYYADSVKGRFTISRDNSKNTVYLQMNSLRPEDTAVYYCATDSGGYIDYDCRGLGYDYWGQGTLVTVSS
B32: VHH 00931 (VHH, not shown: small tags and cut ends)
VHH: B31 VHH with D99E, R109S
B33: VHH 00928 (VHH, not shown: small tags and cut ends)
VHH: B31 VHH with R109S
B34: VHH 00930 (VHH, not shown: small tags and cut ends)
VHH: B31 VHH with D99E
B35: VHH 00929 (VHH, not shown: small tags and cut ends)
VHH: B31 VHH with D99E, R109Q
B36: VHH 3F02 (VHH, not shown: small tags and cut ends)
VHH: EVQLVESGGGLVQVGDSLRLACAASGRTFSTYLMVGWFRQAPGKEREFAAGIWSSGDTAYADSVKGRFTISRDNAKNTVYLQMNSLKTEDTAVYYCAGSYDGNYYIPGFYKDWGQGTQVTVSS
B37: VHH 8A11 (VHH, not shown: small tags and cut ends)
VHH: EVQLVESGGGLVQAGGSLRLSCAASGRTFSSYAMGWFRQAPGKELEFVTAVSWSGGSTYYADSVKGRFTISRDSAKNTVYLQMNSLKPEDTAVYYCAAQSTIVEVTTLEAYDYWGQGTQVTVSS

Experiments:
[1] = target: FLAG tagged human Ang2 (Alexis Biochemicals) (human) (UniProt O15123); assay: competition ELISA, FLAG-hAng2 (0.02 nM) on coated hTie2/Fc
[2] = target: FLAG tagged human Ang2 (Alexis Biochemicals) (human) (UniProt O15123); assay: AlphaScreen competition, periplasmic extract, FLAG-hAng2 / biotin-hTie2/Fc
[3] = target: FLAG tagged human Ang2 (Alexis Biochemicals) (human) (UniProt O15123); assay: competition ELISA, periplasmic extract, FLAG-hAng2 on hTie2/Fc
[4] = target: FLAG-tagged recombinant human Ang1 (human) (UniProt Q15389); assay: ratio of IC50s in hAng1/hTie2 and hAng2/hTie2 competition ELISA
[5] = target: FLAG-tagged human Ang2 (human) (UniProt O15123); assay: competition ELISA: FLAG-hAng2 binding to coated hTie2-Fc
Chain of FLAG-tagged human Ang2 (human) (O15123 19-496): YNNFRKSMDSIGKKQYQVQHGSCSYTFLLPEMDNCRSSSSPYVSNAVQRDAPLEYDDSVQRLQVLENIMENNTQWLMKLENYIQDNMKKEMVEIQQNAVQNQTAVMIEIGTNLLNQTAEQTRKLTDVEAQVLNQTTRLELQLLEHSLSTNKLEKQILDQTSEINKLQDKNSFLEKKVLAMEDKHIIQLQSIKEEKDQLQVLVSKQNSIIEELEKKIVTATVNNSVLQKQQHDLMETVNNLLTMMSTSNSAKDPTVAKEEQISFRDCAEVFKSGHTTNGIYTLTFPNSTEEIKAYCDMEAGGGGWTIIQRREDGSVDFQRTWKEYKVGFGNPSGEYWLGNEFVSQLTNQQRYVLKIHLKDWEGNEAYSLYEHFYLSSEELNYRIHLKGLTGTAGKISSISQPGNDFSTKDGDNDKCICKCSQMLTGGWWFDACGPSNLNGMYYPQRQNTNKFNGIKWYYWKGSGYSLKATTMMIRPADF

Chain of FLAG tagged human Ang2 (Alexis Biochemicals) (human) (O15123 19-496): as above
Chain of FLAG-tagged recombinant human Ang1 (human) (Q15389 20-498 limits assumed): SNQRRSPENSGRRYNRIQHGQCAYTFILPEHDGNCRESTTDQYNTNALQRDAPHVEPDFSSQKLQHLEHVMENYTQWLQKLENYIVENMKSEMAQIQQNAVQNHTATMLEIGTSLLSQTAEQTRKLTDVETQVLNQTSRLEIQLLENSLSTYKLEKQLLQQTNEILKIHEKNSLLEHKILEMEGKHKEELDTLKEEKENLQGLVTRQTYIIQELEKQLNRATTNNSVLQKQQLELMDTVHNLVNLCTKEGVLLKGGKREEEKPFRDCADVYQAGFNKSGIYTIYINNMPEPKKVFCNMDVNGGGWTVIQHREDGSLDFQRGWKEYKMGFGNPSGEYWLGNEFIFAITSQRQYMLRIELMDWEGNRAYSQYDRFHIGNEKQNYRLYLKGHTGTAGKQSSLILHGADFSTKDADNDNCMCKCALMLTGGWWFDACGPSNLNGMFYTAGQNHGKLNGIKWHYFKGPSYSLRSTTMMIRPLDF

| Binder | IC50 [1] [nM] | IC50 [5] [nM] | further results |
| --- | --- | --- | --- |
| B1 | 21 |  |  |
| B2 |  |  | % inh [2]: 72%; % inh [3]: 0% |
| B3 |  |  | % inh [2]: 96%; % inh [3]: 100% |
| B4 | 64.4 |  |  |
| B5 |  |  | % inh [2]: 61%; % inh [3]: 5% |
| B6 |  |  | % inh [2]: 55%; % inh [3]: 39% |
| B7 |  |  | % inh [2]: 67%; % inh [3]: 0% |
| B8 | 18.6 |  | % inh [2]: 57%; % inh [3]: 82% |
| B9 |  | 0.045 | hAng1/hAng2 IC50 ratio [4]: > 192000 |
| B10 |  | 0.049 | hAng1/hAng2 IC50 ratio [4]: > 206000 |
| B11 |  | 0.9 |  |
| B12 |  | 1.3 |  |
| B13 |  | 0.9 | hAng1/hAng2 ratio [4]: > 11200 |
| B14 |  | 0.054 | hAng1/hAng2 IC50 ratio [4]: > 186000 |
| B15 |  | 0.2 |  |
| B16 |  | 1.2 |  |
| B17 |  | 0.068 | hAng1/hAng2 IC50 ratio [4]: > 146000 |
| B18 |  | 0.7 |  |
| B19 |  | 0.064 | hAng1/hAng2 IC50 ratio [4]: > 157000 |

| Binder | IC50 [1] [nM] | IC50 [5] [nM] | further results |
| --- | --- | --- | --- |
| B20 |  | 0.045 | hAng1/hAng2 IC50 ratio [4]: > 224000 |
| B21 |  | 0.056 | hAng1/hAng2 IC50 ratio [4]: > 180000 |
| B22 |  |  | % inh [2]: 57%; % inh [3]: 37% |
| B23 | 11 |  | % inh [2]: 73%; % inh [3]: 78% |
| B24 | 7.7 |  |  |
| B25 | 2.8 |  |  |
| B26 |  |  | % inh [2]: 74%; % inh [3]: 74% |
| B27 | 11.3 |  |  |
| B28 | 4.6 |  |  |
| B29 | 5.3 |  |  |
| B30 | 6.2 |  |  |
| B31 |  | 0.22 |  |
| B32 |  | 0.17 |  |
| B33 |  | 0.22 |  |
| B34 |  | 0.19 |  |
| B35 |  | 0.15 |  |
| B36 | 9.1 |  |  |
| B37 | 30.2 |  | % inh [2]: 57%; % inh [3]: 67% |
